In patent US20240376455:

How the values were obtained:
Test in all cases: cleavage_in_vitro
[1] = system: T1, LPG10139 (Bacillus megaterium); conditions: PAM NNNNC
T1 sequence: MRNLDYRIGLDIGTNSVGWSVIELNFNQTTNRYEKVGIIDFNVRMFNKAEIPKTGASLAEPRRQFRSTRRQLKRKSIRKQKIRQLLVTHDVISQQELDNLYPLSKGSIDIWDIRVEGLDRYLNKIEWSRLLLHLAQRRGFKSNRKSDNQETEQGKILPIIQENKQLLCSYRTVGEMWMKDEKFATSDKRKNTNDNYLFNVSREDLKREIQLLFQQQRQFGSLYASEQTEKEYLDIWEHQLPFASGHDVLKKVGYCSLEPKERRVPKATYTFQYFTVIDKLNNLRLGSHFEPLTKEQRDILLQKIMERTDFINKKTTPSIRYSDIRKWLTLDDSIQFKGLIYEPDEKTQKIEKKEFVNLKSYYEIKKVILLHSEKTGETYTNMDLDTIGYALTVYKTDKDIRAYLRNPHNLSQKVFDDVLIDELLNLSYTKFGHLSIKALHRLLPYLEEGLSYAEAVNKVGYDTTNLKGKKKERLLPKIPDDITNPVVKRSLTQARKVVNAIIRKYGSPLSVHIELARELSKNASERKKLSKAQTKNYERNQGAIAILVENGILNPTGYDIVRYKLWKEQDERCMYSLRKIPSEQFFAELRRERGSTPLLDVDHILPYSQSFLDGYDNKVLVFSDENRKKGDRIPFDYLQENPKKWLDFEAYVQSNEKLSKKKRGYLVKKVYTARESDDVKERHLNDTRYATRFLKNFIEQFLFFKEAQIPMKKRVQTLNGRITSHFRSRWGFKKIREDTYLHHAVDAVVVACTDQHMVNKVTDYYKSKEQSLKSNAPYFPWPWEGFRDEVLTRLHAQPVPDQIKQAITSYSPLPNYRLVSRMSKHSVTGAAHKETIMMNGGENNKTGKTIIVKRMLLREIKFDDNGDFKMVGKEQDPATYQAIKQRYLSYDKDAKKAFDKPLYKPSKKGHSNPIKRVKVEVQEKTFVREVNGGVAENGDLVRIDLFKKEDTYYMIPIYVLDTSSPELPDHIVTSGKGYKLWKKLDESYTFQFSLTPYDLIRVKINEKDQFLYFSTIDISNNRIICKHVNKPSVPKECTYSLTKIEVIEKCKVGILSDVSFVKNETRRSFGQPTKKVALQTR

[2] = system: T2, LPG10145 (undetermined); conditions: PAM NNGG; 37C 120 min
T2 sequence: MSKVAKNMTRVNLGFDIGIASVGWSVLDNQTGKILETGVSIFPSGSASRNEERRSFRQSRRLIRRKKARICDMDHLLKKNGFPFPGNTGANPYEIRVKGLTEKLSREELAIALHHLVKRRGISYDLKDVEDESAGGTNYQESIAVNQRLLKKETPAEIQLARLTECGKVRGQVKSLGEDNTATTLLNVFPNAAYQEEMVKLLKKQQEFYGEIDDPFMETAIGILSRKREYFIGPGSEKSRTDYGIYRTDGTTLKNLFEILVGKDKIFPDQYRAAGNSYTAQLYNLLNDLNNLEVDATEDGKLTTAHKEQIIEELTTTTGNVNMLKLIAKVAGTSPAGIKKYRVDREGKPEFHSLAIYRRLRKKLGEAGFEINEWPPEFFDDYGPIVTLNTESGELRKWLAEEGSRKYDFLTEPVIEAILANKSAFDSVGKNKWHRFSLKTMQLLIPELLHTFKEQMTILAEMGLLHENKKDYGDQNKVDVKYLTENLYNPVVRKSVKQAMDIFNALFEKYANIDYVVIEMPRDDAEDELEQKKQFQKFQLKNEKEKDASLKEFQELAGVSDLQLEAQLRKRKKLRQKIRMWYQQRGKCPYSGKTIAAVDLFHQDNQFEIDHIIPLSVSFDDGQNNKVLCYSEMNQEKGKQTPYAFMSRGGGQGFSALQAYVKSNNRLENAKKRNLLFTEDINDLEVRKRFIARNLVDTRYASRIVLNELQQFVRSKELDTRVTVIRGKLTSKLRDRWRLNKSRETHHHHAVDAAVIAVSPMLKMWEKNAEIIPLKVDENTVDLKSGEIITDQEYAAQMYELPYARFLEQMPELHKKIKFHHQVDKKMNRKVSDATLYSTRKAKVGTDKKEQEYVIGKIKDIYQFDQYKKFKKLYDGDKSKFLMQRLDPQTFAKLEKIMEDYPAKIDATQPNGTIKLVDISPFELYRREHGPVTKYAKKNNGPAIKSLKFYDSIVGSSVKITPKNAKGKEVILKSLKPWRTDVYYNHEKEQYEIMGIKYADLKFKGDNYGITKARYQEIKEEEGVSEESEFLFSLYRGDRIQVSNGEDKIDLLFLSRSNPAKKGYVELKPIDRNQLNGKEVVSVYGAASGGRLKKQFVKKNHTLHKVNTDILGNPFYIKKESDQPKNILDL

[3] = system: T3, LPG10150 (undetermined); conditions: PAM SEQ ID 81
T3 sequence: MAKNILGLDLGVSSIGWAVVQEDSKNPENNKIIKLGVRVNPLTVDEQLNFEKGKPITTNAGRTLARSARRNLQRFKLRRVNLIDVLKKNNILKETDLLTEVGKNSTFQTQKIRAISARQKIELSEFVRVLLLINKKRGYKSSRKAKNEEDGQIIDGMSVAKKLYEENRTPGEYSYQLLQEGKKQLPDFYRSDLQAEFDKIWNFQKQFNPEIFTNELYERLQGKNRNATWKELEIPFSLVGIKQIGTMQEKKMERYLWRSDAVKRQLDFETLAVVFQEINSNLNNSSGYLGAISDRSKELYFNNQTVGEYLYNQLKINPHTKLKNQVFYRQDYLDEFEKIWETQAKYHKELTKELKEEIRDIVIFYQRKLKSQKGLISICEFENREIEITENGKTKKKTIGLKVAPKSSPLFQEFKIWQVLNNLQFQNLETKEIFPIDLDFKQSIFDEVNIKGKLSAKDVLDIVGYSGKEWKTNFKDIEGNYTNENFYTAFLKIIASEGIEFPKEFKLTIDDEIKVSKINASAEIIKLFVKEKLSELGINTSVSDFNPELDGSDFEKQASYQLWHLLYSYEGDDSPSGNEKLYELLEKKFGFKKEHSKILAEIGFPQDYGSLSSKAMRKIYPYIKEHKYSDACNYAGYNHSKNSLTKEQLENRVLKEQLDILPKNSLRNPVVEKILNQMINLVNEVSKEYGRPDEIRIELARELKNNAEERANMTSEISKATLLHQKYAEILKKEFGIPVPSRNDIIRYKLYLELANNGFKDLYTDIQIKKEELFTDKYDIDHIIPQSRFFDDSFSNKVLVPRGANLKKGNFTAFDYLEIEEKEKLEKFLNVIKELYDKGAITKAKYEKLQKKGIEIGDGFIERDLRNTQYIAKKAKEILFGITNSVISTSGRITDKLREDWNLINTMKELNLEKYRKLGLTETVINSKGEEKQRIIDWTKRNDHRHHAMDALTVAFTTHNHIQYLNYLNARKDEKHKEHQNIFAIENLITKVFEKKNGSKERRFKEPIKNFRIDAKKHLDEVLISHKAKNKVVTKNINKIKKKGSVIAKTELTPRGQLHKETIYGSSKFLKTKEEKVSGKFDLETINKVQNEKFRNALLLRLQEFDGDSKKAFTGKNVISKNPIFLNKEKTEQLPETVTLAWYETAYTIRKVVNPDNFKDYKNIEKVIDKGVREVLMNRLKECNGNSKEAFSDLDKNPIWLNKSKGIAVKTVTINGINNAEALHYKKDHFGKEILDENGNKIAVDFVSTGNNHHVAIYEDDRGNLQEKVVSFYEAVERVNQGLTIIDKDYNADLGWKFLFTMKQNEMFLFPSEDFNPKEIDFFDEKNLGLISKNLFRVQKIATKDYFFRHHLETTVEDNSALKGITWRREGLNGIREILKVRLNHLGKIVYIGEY

Sequence | activity (% target strand cleaved) [1] | activity (% target strand cleaved) [2] | activity (% target strand cleaved) [3]
GUCAUAGUCCCAUCAUAUCCAUUGAAAGCAAUGGAUAUGAUGUUUCUAUGAUAAGGGCUCUCUAAGAGAGACCUGUGGCGUUGGGGAUCGCCUGCCCGUUUCGACGGGUGUCUCCCCAUUU / GATATAGACGTTGTGGCTGTTGTAGTAGGACCTC / GAGGTCCTACTACAACAGCCACAACGTCTATATC [LPG10139 sgRNA L2 ; Library 2 target AGGACCTC] | 7.3 | – | –
GUCAUAGUCCCAUCAUAUCCAUUGAAAGCAAUGGAUAUGAUGUUUCUAUGAUAAGGGCUCUCUAAGAGAGACCUGUGGCGUUGGGGAUCGCCUGCCCGUUUCGACGGGUGUCUCCCCAUUU / GGACAGCAGCTTCCTATATCTCGTACAGGACCTC / GAGGTCCTGTACGAGATATAGGAAGCTGCTGTCC [LPG10139 sgRNA L1 ; Library 1 target AGGACCTC] | 4.4 | – | –
GUUAUUGUACUCUCAAGGAAUCAGAAAGACUGAUUCCUUGAGAAUCUACAAUAAUAAGGCUUUAUGCCGAAAUUCCCACUCUUAACGGAGUGGGUUUU / GATATAGACGTTGTGGCTGTTGTAGTACGGATTC / GAATCCGTACTACAACAGCCACAACGTCTATATC [LPG10145 sgRNA L2 ; Library 2 target ACGGATTC] | – | 100 | –
GUUAUUGUACUCUCAAGGAAUCAGAAAGACUGAUUCCUUGAGAAUCUACAAUAAUAAGGCUUUAUGCCGAAAUUCCCACUCUUAACGGAGUGGGUUUU / GGACAGCAGCTTCCTATATCTCGTACACGGATTC / GAATCCGTGTACGAGATATAGGAAGCTGCTGTCC [LPG10145 sgRNA L1 ; Library 1 target ACGGATTC] | – | 92.9 | –
GUUGUGAAUUGCUUUAAAGAAAGCAAUUCACAAUAAGGAUUAUUCCGUUGUGAAAACAUCUAGCGCCUCGUCUAUCUACGGGGCAUUUU / GATATAGACGTTGTGGCTGTTGTAGTAGGACTTC / GAAGTCCTACTACAACAGCCACAACGTCTATATC [LPG10150 sgRNA L2 ; Library 2 target AGGACTTC] | – | – | 31.8
GUUGUGAAUUGCUUUAAAGAAAGCAAUUCACAAUAAGGAUUAUUCCGUUGUGAAAACAUCUAGCGCCUCGUCUAUCUACGGGGCAUUUU / GGACAGCAGCTTCCTATATCTCGTACAGGACCTC / GAGGTCCTGTACGAGATATAGGAAGCTGCTGTCC [LPG10150 sgRNA L1 ; Library 1 target AGGACCTC] | – | – | 1.4
